Biological target: T1, Recombinant human PDZD8 (1,28-) - FLAG (human, UniProt Q8NEN9 1-1154, (1, 28-))
T1 sequence (looked up): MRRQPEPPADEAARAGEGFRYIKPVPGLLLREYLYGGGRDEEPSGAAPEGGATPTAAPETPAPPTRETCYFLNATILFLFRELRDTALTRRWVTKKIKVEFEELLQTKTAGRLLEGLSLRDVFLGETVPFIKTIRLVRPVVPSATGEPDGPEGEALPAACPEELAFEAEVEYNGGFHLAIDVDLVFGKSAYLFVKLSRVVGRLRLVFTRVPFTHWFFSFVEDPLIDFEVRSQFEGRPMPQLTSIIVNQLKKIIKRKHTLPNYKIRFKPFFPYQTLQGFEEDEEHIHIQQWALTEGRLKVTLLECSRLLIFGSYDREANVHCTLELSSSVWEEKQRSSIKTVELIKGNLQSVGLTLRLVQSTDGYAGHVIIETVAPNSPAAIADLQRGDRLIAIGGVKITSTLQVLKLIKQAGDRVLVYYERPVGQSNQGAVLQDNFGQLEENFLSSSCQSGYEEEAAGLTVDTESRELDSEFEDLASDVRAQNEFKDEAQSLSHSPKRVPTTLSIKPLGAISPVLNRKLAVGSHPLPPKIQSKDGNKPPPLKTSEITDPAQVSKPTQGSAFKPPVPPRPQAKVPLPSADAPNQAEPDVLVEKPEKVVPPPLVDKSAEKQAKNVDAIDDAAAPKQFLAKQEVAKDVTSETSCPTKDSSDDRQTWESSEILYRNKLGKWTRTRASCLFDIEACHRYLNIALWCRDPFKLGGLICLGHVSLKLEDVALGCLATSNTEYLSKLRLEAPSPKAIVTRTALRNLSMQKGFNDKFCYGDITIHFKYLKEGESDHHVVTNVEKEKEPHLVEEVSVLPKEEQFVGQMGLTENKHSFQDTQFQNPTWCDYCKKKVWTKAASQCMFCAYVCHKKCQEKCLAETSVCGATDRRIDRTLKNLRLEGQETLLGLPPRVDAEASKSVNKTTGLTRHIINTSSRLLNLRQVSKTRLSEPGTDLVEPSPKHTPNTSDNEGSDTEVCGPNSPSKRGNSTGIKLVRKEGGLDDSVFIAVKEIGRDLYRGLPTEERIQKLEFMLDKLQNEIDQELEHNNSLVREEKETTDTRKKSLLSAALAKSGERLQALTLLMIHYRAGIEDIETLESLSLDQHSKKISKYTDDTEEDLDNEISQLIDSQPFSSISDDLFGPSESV
Assay: SPR

B1: Recombinant human FKBP8 (1-380) - Histag (domain or fragment, UniProt Q14318 1-380, looked up)
chain: MASCAEPSEPSAPLPAGVPPLEDFEVLDGVEDAEGEEEEEEEEEEEDDLSELPPLEDMGQPPAEEAEQPGALAREFLAAMEPEPAPAPAPEEWLDILGNGLLRKKTLVPGPPGSSRPVKGQVVTVHLQTSLENGTRVQEEPELVFTLGDCDVIQALDLSVPLMDVGETAMVTADSKYCYGPQGRSPYIPPHAALCLEVTLKTAVDGPDLEMLTGQERVALANRKRECGNAHYQRADFVLAANSYDLAIKAITSSAKVDMTFEEEAQLLQLKVKCLNNLAASQLKLDHYRAALRSCSLVLEHQPDNIKALFRKGKVLAQQGEYSEAIPILRAALKLEPSNKTIHAELSKLVKKHAAQRSTETALYRKMLGNPSRLPAKCPG
- Kd: 142 µM
